Experimental data published in PMC4237437, “Biochemical and Structural Characterization of Mycobacterial Aspartyl-tRNA Synthetase AspS, a Promising TB Drug Target” (PLoS ONE, 2014).

Tests used:
[1] = molecular target: T1, Mt-AspS (M. tuberculosis aspartyl-tRNA synthetase) (Mycobacterium tuberculosis, UniProt P9WFW3); test: biochemical
T1 construct: C-terminally His6-tagged Mt-AspS (pET28b)

N[C@@H](CC(=O)O)C(=O)O = test: purified protein
[2] = tested on: Nc1ncnc2c1ncn2[C@@H]1O[C@H](COP(=O)(O)OP(=O)(O)CP(=O)(O)O)[C@@H](O)[C@H]1O; test: purified protein
[3] = tested on: Nc1ncnc2c1ncn2[C@@H]1O[C@H](COP(=O)(O)OP(=O)(O)NP(=O)(O)O)[C@@H](O)[C@H]1O; test: purified protein
O=P(O)(O)OP(=O)(O)O = test: purified protein
[4] = molecular target: the molecule itself; test: crystal structure; apo Ms-AspS, 2.4 Å, space group C222(1), one molecule per asymmetric unit; the two monomers of the dimer are related by crystal symmetry; crystals from 30% pentaerythritol ethoxylate, 0.1 M magnesium formate, 0.1 M Tris-HCl pH 8.5

T1 sequence (P9WFW3 whole entry): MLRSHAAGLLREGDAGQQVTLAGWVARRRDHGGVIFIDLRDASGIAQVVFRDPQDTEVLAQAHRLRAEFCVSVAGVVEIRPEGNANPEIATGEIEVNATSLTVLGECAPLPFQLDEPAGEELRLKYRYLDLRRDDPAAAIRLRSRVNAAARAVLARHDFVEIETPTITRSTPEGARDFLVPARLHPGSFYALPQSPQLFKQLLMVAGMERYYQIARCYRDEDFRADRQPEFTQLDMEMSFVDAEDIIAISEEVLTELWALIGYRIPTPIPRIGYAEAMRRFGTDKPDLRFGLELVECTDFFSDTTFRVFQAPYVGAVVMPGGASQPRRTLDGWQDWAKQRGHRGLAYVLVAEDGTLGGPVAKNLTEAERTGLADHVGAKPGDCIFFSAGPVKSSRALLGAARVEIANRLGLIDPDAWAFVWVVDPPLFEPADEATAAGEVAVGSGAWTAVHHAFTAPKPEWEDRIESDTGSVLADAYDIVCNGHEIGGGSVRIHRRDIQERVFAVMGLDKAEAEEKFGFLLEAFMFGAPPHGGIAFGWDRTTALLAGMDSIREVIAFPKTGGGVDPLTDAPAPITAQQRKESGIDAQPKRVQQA

## NC(=O)C1CCN(C2=NC(=O)/C(=C\c3ccc(Cl)cc3Cl)S2)CC1 [compound 1, F1673-0402]
[1]
  IC50: 49.9 µM

## CCOC(=O)C1CCN(C2=NC(=O)/C(=C\c3ccc(Cl)cc3)S2)CC1 [compound 2, 6632725]
[1]
  IC50: 59.1 µM

## Mt-AspS (M. tuberculosis aspartyl-tRNA synthetase) (Mycobacterium tuberculosis H37Rv)
N[C@@H](CC(=O)O)C(=O)O
  Km: 143.4 ± 18.83 µM
[2]
  Km: 98.25 ± 11.23 µM
[3]
  Km: 604.7 ± 40.27 µM
O=P(O)(O)OP(=O)(O)O
  Km: 76.42 ± 10.10 µM

B1: Mycobacterium smegmatis aspartyl-tRNA synthetase AspS (enzyme, UniProt A0QWN3 1-598, looked up)
chain: MLRTHAAGSLRPADAGQTVTLAGWVARRRDHGGVIFIDLRDASGVSQVVFREGDVLAAAHRLRAEFCVAVTGVVEVRPEGNENPEIPTGQIEVNATELTVLGESAPLPFQLDEQAGEEARLKYRYLDLRREGPGNALRLRSKVNAAARSVLAEHDFVEIETPTLTRSTPEGARDFLVPARLQPGSFYALPQSPQLFKQLLMVAGMERYYQIARCYRDEDFRADRQPEFTQLDMEMSFVEADDVIAISEQVLKAVWATIGYDLPLPLPRISYEEAMRRFGSDKPDLRFGIELVECTEYFKDTTFRVFQAPYVGAVVMPGGASQPRRTLDGWQEFAKQRGHKGLAYVLVGEDGTLGGPVAKNLSDAERDGLVAHVGANPGDCIFFAAGPAKGARALLGATRIEIAKRLDLIDPNAWAFTWVVDFPMFEAADEATAAGDVAVGSGAWTAMHHAFTAPKPDSVDTFDSDPGNALSDAYDIVCNGNEIGGGSIRIHRRDIQERVFAMMGIDHDEAQEKFGFLLDAFSYGAPPHGGIAFGWDRITALLAGVDSIREVIAFPKSGGGVDPLTDAPAPITPQQRKESGIDAKPREDKPKEDAKSKA
notes: Aspartyl-tRNA synthetase AspS of Mycobacterium smegmatis; The expression and purification protocol is printed only for Mt-AspS (E. coli C41 (DE3), Ni2+ HisTrap); also called Ms-AspS; MsAspS; source: cloned from M. smegmatis genomic DNA into pET28b; dialysed and concentrated by ultrafiltration before crystallisation
[4]
  stoichiometry N: 2
